Data: patent US20230356187A1 (AMICOGEN, published 2023)
Residue numbers refer to the chain shown, from its start. Numbers in names are those of the source.

B1: Protein L B3 domain variant EP2(E28G) (designed binder)
chain: MPKEEVTIKANLIYADGKTQTAEFKGTFGEATAEAYRYADLLAKENGKYTVDVADKGYTLNIKFAGKEKTPEE
notes: not shown: 6xHis tag
B2: Wild-type Protein L B3 domain (other)
chain: B1 chain with G29E
notes: also called wB3; wild-type B3 domain; not shown: 6xHis tag
B3: Protein L B3 domain variant EP1(E28A) (designed binder)
chain: B1 chain with G29A
notes: not shown: 6xHis tag
B4: Protein L B3 domain variant EPS1(E28L) (designed binder)
chain: B1 chain with G29L
notes: not shown: 6xHis tag
B5: Protein L B3 domain variant EPS5(E28G/D51T) (designed binder)
chain: B1 chain with D52T
notes: not shown: 6xHis tag
B6: Protein L B3 domain variant BEP3(E28G/D51V) (designed binder)
chain: B1 chain with D52V
notes: not shown: 6xHis tag
B7: Protein L B3 domain variant BEP2(E28G/K43P) (designed binder)
chain: B1 chain with K44P
notes: not shown: 6xHis tag
B8: Protein L B3 domain variant EPS6(E28G/N60F) (designed binder)
chain: B1 chain with N61F
notes: not shown: 6xHis tag
B9: Protein L B3 domain variant EPS4(E28G/K43E) (designed binder)
chain: B1 chain with K44E
notes: not shown: 6xHis tag
B10: Protein L B3 domain variant BEP1(E28G/Y13F) (designed binder)
chain: B1 chain with Y14F
notes: not shown: 6xHis tag
B11: Protein L B3 domain variant EPS3(E28W) (designed binder)
chain: B1 chain with G29W
notes: not shown: 6xHis tag
B12: Protein L B3 domain variant BEP4(E28G/N60E) (designed binder)
chain: B1 chain with N61E
notes: not shown: 6xHis tag
B13: Protein L B3 domain variant EPS2(E28P) (designed binder)
chain: B1 chain with G29P
notes: not shown: 6xHis tag
B14: Protein L B3 domain variant mBF4 (Y13F/E28G/K43P) (designed binder)
chain: B1 chain with Y14F, K44P
notes: also called mBF monomer; not shown: 6xHis tag

Target: T1, IgG(f) protein (Herceptin scFv)
T1 construct: Polypeptide of the human IgG1-based scFv region (GenBank AWW43726); Expressed from pET29a(+) (NdeI/XhoI) in E. coli and purified on Ni-NTA resin; also called recombinant immunoglobulin G fragment
Test: binder coupled to NHS-Sepharose in 96-well filter plate; bound IgG(f) eluted and read at OD280 after 0.3 M NaOH; reference set to 100%

T1 sequence (scFv, as listed by the source): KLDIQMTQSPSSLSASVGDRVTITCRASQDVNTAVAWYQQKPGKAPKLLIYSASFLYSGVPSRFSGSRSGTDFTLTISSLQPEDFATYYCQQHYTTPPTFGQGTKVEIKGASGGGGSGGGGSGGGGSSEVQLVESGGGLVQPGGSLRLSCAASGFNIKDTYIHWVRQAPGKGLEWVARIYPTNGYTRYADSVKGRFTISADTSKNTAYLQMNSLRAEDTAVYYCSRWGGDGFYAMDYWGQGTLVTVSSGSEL

Binder	binding result
B1	binds

Target: T1, IgG(f) protein (Herceptin scFv)
Test: binder coupled to NHS-Sepharose in 96-well filter plate; bound IgG(f) eluted at pH 2.5 and read at OD280, before and after 0.3 M NaOH

Binder	binding result
B2	binds
B3	binds

Target: T1, IgG(f) protein (Herceptin scFv)
Test: binder coupled to NHS-Sepharose in 96-well filter plate; bound IgG(f) eluted and read at OD280 after 0.3 M NaOH

Binder	binding result
B4	binds
B5	binds
B6	binds
B7	binds
B8	binds
B9	binds
B10	binds
B11	binds
B12	binds
B13	binds

Target: T1, IgG(f) protein (Herceptin scFv)
Test: binder coupled to NHS-Sepharose; bound IgG(f) eluted and read at OD280; relative to 0 h (100%), after 5 h in 0.3 M NaOH; reference wB3
Method: The library prepared in Example 5 was purified by the same manner as in Examples <1-3>, and the absorbance over time was measured by the same method as in Example 3 to compare the alkali tolerance. The absorbance over time obtained is shown in FIG. 5 as a relative value to the absorbance (100%) at the beginning (0 h).

Binder	fold increase in alkali tolerance (residual scFv binding activity after 5 hours in 0.3 M NaOH) compared to wB3 [fold]
B14	~2.7
